Where two headings read alike, the source gives them in different places. Numbered stars: 1 amine (or outer) side, 2 acyl side, 3 side chain; on linkers, the order of the positions; unused ones are H or OH. Square brackets hold non-standard residues; d marks the D form. Side chains are listed from the residue outwards. Ends that are not written are not given here. Peptide text beside a SMILES is read from it. * marks the point of attachment. C20 diacid = O=C(O)CCCCCCCCCCCCCCCCCCC(=O)*; γGlu = O=C(O)[C@H](CCC(=O)[*:2])N[*:1]; AEEA = NCCOCCOCC(=O)O; Aib = CC(C)(N)C(=O)O
Tests used:
[1] = Turbidity of crude library peptides (absorbance at 600 nm); type: physicochemical; details: Physical stability of peptides
Procedure, shortened: (§1)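 Crude peptides at 267 μM in 50 mM sodium acetate pH 4.0 or 50 mM sodium phosphate pH 7.0, pre-incubated 1-2 h at room temperature, then 4 μM final ThT added. Turbidity read first as A600. ThT fluorescence (ex 450/em 480 nm) read every 10 min for 72 h at 40° C, with 5 min shaking before each read; fibril formation = average emission.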

[2] = Fibril formation of crude library peptides (Thioflavin T); type: physicochemical; parameters: key: average ThT fluorescence emission at 480 nm (ex 450 nm), raw units; details: Physical stability of peptides
Procedure, shortened: as §1

GLP1R = GLP1R (Homo sapiens, UniProt P43220); assay: hGLP1R potency, cAMP accumulation in CHO-K1 cells stably overexpressing hGLP1R; type: cell-based; parameters: host or cells: CHO-K1; details: for Selectivity: SCTR EC50/GLP1R EC50 ratio; for EC50: cAMP accumulation, CHO-K1 cells overexpressing hGLP1R
Procedure, shortened: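 CHO-K1 cells stably expressing hGLP1R (2000/well) in DPBS with 0.05% casein and 0.5 mM IBMX were stimulated 30 min at room temperature with graded compound doses; human GLP-1(7-36) served as positive control. cAMP was read by HTRF after 1 h; EC50 came from variable-slope sigmoid fits (purified peptides: 11-point 3-fold, n=2).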

SCTR = SCTR (Homo sapiens, UniProt P47872); assay: hSCTR potency, cAMP accumulation in CHO-K1 cells stably overexpressing hSCTR; type: cell-based; parameters: alternatively Euroscreen ES-712-AF; FAST-0161L; host or cells: CHO-K1; details: cAMP accumulation, CHO-K1 cells overexpressing hSCTR
Procedure, shortened: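 Cells plated at 2000/well in DPBS with 0.05% casein and 0.5 mM IBMX, stimulated 30 min at room temperature with graded compound doses; human secretin as positive control. cAMP read by TR-FRET after 1 h. Purified peptides tested at 11 3-fold dilutions, n=2; EC50 by variable-slope sigmoid fit.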

[3] = target: human GLP-1 receptor (hGLP1R) (human, UniProt P43220 24-463); assay: cell-based or functional assay
[4] = target: human secretin receptor (hSCTR) (human, UniProt P47872 23-440); assay: cell-based or functional assay
[5] = read-out: pEC50 hGLPR1 (converted)
[6] = read-out: pEC50 hSCTR (converted)

Chain of SCTR (P47872 23-440): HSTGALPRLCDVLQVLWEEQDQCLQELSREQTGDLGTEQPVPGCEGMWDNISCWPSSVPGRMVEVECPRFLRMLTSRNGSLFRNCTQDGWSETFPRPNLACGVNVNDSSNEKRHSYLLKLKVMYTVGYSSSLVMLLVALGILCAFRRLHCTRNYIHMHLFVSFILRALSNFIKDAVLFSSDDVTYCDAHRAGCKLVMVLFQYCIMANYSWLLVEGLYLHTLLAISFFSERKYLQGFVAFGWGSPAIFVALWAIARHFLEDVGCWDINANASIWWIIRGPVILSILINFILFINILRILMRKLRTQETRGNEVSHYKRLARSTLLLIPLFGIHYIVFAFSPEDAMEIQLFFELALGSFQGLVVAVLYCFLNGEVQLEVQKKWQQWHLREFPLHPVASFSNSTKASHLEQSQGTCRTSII
Chain of human secretin receptor (hSCTR) (P47872 23-440): as above
Chain of GLP1R (P43220 24-463): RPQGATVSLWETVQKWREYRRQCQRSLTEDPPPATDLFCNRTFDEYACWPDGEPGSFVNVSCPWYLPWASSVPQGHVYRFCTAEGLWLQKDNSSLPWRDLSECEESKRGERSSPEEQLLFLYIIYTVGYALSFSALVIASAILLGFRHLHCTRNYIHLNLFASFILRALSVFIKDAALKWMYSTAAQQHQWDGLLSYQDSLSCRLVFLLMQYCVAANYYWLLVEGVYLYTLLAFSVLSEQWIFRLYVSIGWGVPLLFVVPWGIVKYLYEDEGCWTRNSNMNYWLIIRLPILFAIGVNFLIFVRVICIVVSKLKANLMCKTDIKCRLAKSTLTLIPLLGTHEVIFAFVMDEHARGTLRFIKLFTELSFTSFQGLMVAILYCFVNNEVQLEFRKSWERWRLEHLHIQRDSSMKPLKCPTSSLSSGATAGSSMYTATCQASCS

| pEC50 hGLPR1 [3] | pEC50 hSCTR [4] | Molecule | also measured |
| --- | --- | --- | --- |
| 10.6 -log M | 5.3 -log M | H[Aib]EGTFTSDVSELK([AEEA-AEEA-γGlu-C20 diacid])ETAAAQRFLEHLV-NH2 [SEQ ID NO: 57] | – |
| 10.9 -log M | 7.1 -log M | H[Aib]EGTFTSDVSELK([AEEA-AEEA-γGlu-C20 diacid])E[Aib]AAQQRFLEHLV-NH2 [SEQ ID NO: 5] | – |
| 10.9 -log M | 6.9 -log M | H[Aib]EGTFTSDVSELK([AEEA-AEEA-γGlu-C20 diacid])ETAATQRFLEHLV-NH2 [SEQ ID NO: 54] | – |

Further lines, the molecule ahead of its results:

| Molecule | pEC50 hGLPR1 [3] | pEC50 hSCTR [4] | also measured |
| --- | --- | --- | --- |
| CC(C)C[C@H](NC(=O)[C@H](Cc1ccccc1)NC(=O)[C@H](CCCNC(=N)N)NC(=O)[C@H](CCC(N)=O)NC(=O)C(C)(C)NC(=O)[C@H](C)NC(=O)[C@H](C)NC(=O)C(C)(C)NC(=O)[C@H](CCC(=O)O)NC(=O)[C@H](CCCCNC(=O)COCCOCCNC(=O)COCCOCCNC(=O)CC[C@H](NC(=O)CCCCCCCCCCCCCCCCCCC(=O)O)C(=O)O)NC(=O)[C@H](CC(C)C)NC(=O)[C@H](CCC(=O)O)NC(=O)[C@H](CO)NC(=O)[C@@H](NC(=O)[C@H](CC(=O)O)NC(=O)[C@H](CO)NC(=O)[C@@H](NC(=O)[C@H](Cc1ccccc1)NC(=O)[C@@H](NC(=O)CNC(=O)[C@H](CCC(=O)O)NC(=O)C(C)(C)NC(=O)[C@@H](N)Cc1c[nH]cn1)[C@@H](C)O)[C@@H](C)O)C(C)C)C(=O)N[C@@H](CCC(=O)O)C(=O)N[C@@H](Cc1c[nH]cn1)C(=O)N[C@@H](CC(C)C)C(=O)N[C@H](C(N)=O)C(C)C [compound 7] (H-H[Aib]EGTFTSDVSELK([AEEA-AEEA-γGlu-C20 diacid])E[Aib]AA[Aib]QRFLEHLV-NH2) | – | – | Turbidity (pH 7) [1]: 0.08; Fibril formation [2]: 10801; Selectivity (GLP1R): 18030; EC50 (GLP1R; [5]): 0.0631 nM; EC50 (SCTR; [6]): 1000 nM |
| CC(C)C[C@H](NC(=O)[C@H](Cc1ccccc1)NC(=O)[C@H](CCCNC(=N)N)NC(=O)[C@H](CCC(N)=O)NC(=O)[C@H](CCC(=O)O)NC(=O)[C@H](C)NC(=O)[C@H](C)NC(=O)C(C)(C)NC(=O)[C@H](CCC(=O)O)NC(=O)[C@H](CCCCNC(=O)COCCOCCNC(=O)COCCOCCNC(=O)CC[C@H](NC(=O)CCCCCCCCCCCCCCCCCCC(=O)O)C(=O)O)NC(=O)[C@H](CC(C)C)NC(=O)[C@@H](NC(=O)[C@H](CO)NC(=O)[C@@H](NC(=O)[C@H](CC(=O)O)NC(=O)[C@H](CO)NC(=O)[C@@H](NC(=O)[C@H](Cc1ccccc1)NC(=O)[C@@H](NC(=O)CNC(=O)[C@H](CCC(=O)O)NC(=O)C(C)(C)NC(=O)[C@@H](N)Cc1c[nH]cn1)[C@@H](C)O)[C@@H](C)O)C(C)C)[C@@H](C)O)C(=O)N[C@@H](CCC(=O)O)C(=O)N[C@@H](Cc1c[nH]cn1)C(=O)N[C@@H](CC(C)C)C(=O)N[C@H](C(N)=O)C(C)C [compound 16] (H-H[Aib]EGTFTSDVSTLK([AEEA-AEEA-γGlu-C20 diacid])E[Aib]AAEQRFLEHLV-NH2) | – | – | Turbidity (pH 7) [1]: 0.08; Fibril formation [2]: 11719; Selectivity (GLP1R): 2876; EC50 (GLP1R; [5]): 0.0398 nM; EC50 (SCTR; [6]): 126 nM |
| CC[C@H](C)[C@H](NC(=O)[C@H](Cc1ccccc1)NC(=O)[C@H](CCCNC(=N)N)NC(=O)[C@H](CCC(N)=O)NC(=O)[C@H](CC(C)C)NC(=O)[C@H](C)NC(=O)[C@H](C)NC(=O)CNC(=O)[C@H](CCC(=O)O)NC(=O)[C@H](CC(C)C)NC(=O)[C@H](CC(C)C)NC(=O)[C@H](Cc1c[nH]c2ccccc12)NC(=O)[C@H](CO)NC(=O)[C@@H](NC(=O)[C@H](CC(=O)O)NC(=O)[C@H](CO)NC(=O)[C@@H](NC(=O)[C@H](Cc1ccccc1)NC(=O)[C@@H](NC(=O)CNC(=O)[C@H](CCC(=O)O)NC(=O)C(C)(C)NC(=O)[C@@H](N)Cc1c[nH]cn1)[C@@H](C)O)[C@@H](C)O)C(C)C)C(=O)N[C@@H](CCC(N)=O)C(=O)N[C@@H](Cc1c[nH]c2ccccc12)C(=O)N[C@@H](CC(C)C)C(=O)N[C@H](C(N)=O)C(C)C [compound 183] (H-H[Aib]EGTFTSDVSWLLEGAALQRFIQWLV-NH2) | – | – | Turbidity (pH 7) [1]: 0.67; Fibril formation [2]: 172171; EC50 (GLP1R; read-out: hGLP1R pEC50 (converted)): 0.0501 nM; SCTR EC50/GLP1R EC50 ratio (GLP1R; selectivity for hGLP1R over hSCTR, cAMP accumulation in CHO-K1 cells): 3127; EC50 (SCTR; read-out: hSCTR pEC50 (converted)): 158 nM |
| CC(C)C[C@H](NC(=O)[C@H](Cc1ccccc1)NC(=O)[C@H](CCCNC(=N)N)NC(=O)[C@H](CCC(N)=O)NC(=O)[C@@H](NC(=O)[C@H](C)NC(=O)[C@H](C)NC(=O)C(C)(C)NC(=O)[C@H](CCC(=O)O)NC(=O)[C@H](CCCCNC(=O)COCCOCCNC(=O)COCCOCCNC(=O)CC[C@H](NC(=O)CCCCCCCCCCCCCCCCCCC(=O)O)C(=O)O)NC(=O)[C@H](CC(C)C)NC(=O)[C@H](CCCNC(=N)N)NC(=O)[C@H](CO)NC(=O)[C@@H](NC(=O)[C@H](CC(=O)O)NC(=O)[C@H](CO)NC(=O)[C@@H](NC(=O)[C@H](Cc1ccccc1)NC(=O)[C@@H](NC(=O)CNC(=O)[C@H](CCC(=O)O)NC(=O)C(C)(C)NC(=O)[C@@H](N)Cc1c[nH]cn1)[C@@H](C)O)[C@@H](C)O)C(C)C)[C@@H](C)O)C(=O)N[C@@H](CCC(=O)O)C(=O)N[C@@H](Cc1c[nH]cn1)C(=O)N[C@@H](CC(C)C)C(=O)N[C@H](C(N)=O)C(C)C [compound 50] (H-H[Aib]EGTFTSDVSRLK([AEEA-AEEA-γGlu-C20 diacid])E[Aib]AATQRFLEHLV-NH2) | – | – | Turbidity (pH 7) [1]: 0.09; Fibril formation [2]: 12284; Selectivity (GLP1R): 3425; EC50 (GLP1R; [5]): 0.0158 nM; EC50 (SCTR; [6]): 50.1 nM |
| H[Aib]EGTFTSDVSRLK([AEEA-AEEA-γGlu-C20 diacid])EFAASQRFLEHLV-NH2 [SEQ ID NO: 52] | 9.9 -log M | 6.4 -log M | – |
| H[Aib]EGTFTSDVSFLK([AEEA-AEEA-γGlu-C20 diacid])EEAAEQRFLEHLV-NH2 [SEQ ID NO: 56] | 10.4 -log M | 5.1 -log M | – |
| H[Aib]EGTFTSDVSELK([AEEA-AEEA-γGlu-C20 diacid])EEAAEQRFLEHLV-NH2 [SEQ ID NO: 51] | 10.5 -log M | 5.7 -log M | – |
| H[Aib]EGTFTSDVSRLK([AEEA-AEEA-γGlu-C20 diacid])EEAA[Aib]QRFLEHLV-NH2 (also: K14 lipid also given as C18DA[γE][OEG][OEG]-) [SEQ ID NO: 1] | 10.4 -log M | 6.8 -log M | – |
| H[Aib]EGTFTSDVSVLK([AEEA-AEEA-γGlu-C20 diacid])EEAATQRFLEHLV-NH2 [SEQ ID NO: 53] | 11.3 -log M | 7.2 -log M | – |
| H[Aib]EGTFTSDVSRLK([AEEA-AEEA-γGlu-C20 diacid])E[Aib]AATQRFLEHLV-NH2 [SEQ ID NO: 50] | 10.8 -log M | 7.3 -log M | – |
| H[Aib]EGTFTSDVSTLK([AEEA-AEEA-γGlu-C20 diacid])EEAASQRFLEHLV-NH2 [SEQ ID NO: 6] | 10.5 -log M | 6.5 -log M | – |
| H[Aib]EGTFTSDVSELK([AEEA-AEEA-γGlu-C20 diacid])EEAATQRFLEHLV-NH2 [SEQ ID NO: 55] | 11 -log M | 6.8 -log M | – |

Source: patent publication US20260201008A1, “SECRETIN-DERIVED GLP1R SELECTIVE AGONISTS” (GUBRA A/S, priority 2023, published 2026)
